± gives the standard error. Variants at the floor of the assay were thinned out.
B1: glmS ribozyme (parent)
chain: AUAAAAGCGCCAGAACUACAGAAAUGUAGUUGACGAGGAGGAGGUUUAUCGAAUUUUCGGCGGAUGCCUCCAAA

Legend:
Details in all cases: with glucosamine-6-phosphate
[1] = variants of: B1; experiment: self-cleavage kobs at 40 uM GlcN6P; higher = faster cleavage; RNA array
Outline: (§1)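 Tracking of barcoded ribozyme variants used a hybridised Cy3 probe at 37 °C, after in situ transcription by E. coli RNA polymerase on sequenced MiSeq chips. The flowed solution held 40 μM to 10 mM glucosamine-6-phosphate in HEPES/KCl/Mg(OAc)2 buffer, and imaging ran over ~14 h. kobs was taken from exponential decay fits of normalised per-tile medians, and kcat and KM from weighted Michaelis–Menten fits.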

[2] = variants of: B1; experiment: self-cleavage kobs at 2500 uM GlcN6P; higher = faster cleavage; RNA array
Outline: as §1

[3] = variants of: B1; experiment: self-cleavage kobs at 10000 uM GlcN6P; higher = faster cleavage; RNA array
Outline: as §1

[4] = variants of: B1; experiment: self-cleavage kobs at 640 uM GlcN6P; higher = faster cleavage; RNA array
Outline: as §1

[5] = variants of: B1; experiment: self-cleavage kobs at 160 uM GlcN6P; higher = faster cleavage; RNA array
Outline: as §1

Variant | self-cleavage kobs at 40 uM GlcN6P [1] [s⁻¹] | self-cleavage kobs at 2500 uM GlcN6P [2] [s⁻¹] | self-cleavage kobs at 10000 uM GlcN6P [3] [s⁻¹] | self-cleavage kobs at 640 uM GlcN6P [4] [s⁻¹] | self-cleavage kobs at 160 uM GlcN6P [5] [s⁻¹]
A36C C58A U65A C68G | 0.000139 ± 4.3e-05 | 0.000116 ± 2.7e-05 |  |  | 
G35C C50U C70G | < 1e-05 |  |  |  | 
G35U G63U G66C C67A | < 1e-05 |  | < 1e-05 |  | 
G35C C68A C71U | < 1e-05 | < 1e-05 | < 1e-05 | < 1e-05 | 
A36G A53G | < 1e-05 |  |  | < 1e-05 | < 1e-05
G35U G66C C67U | < 1e-05 |  |  |  | 
A36G U55C C67U | < 1e-05 | < 1e-05 |  | < 1e-05 | 
G35A U47C | < 1e-05 | < 1e-05 |  | < 1e-05 | < 1e-05
A36G G43A C58A G62C C68G | < 1e-05 |  | < 1e-05 |  | 
A36C C58U | < 1e-05 |  | < 1e-05 | < 1e-05 | 
G35U G41U C70U | < 1e-05 |  | < 1e-05 |  | 
A36C U49G A53G | 4.33e-05 ± 1.4e-05 |  | 0.00107 ± 0.00018 |  | 
G35U C50G | 3.53e-05 ± 1.5e-05 | 0.000141 ± 3.9e-05 |  |  | 9.05e-05 ± 2.7e-05
G35U A48C | < 1e-05 | < 1e-05 | < 1e-05 |  | 
A36C G37C G41C C50A A52C C71U | < 1e-05 |  |  |  | 
G35C C58A | < 1e-05 |  | < 1e-05 | < 1e-05 | 
A36C A48C U56A | < 1e-05 |  |  |  | 
A36G U54C | < 1e-05 |  |  |  | < 1e-05
G35C G59A | < 1e-05 | < 1e-05 |  | < 1e-05 | < 1e-05
G35C A48C | < 1e-05 | < 1e-05 | < 1e-05 | < 1e-05 | < 1e-05
G35C A48U | < 1e-05 | < 1e-05 | < 1e-05 |  | 

Variant | self-cleavage kobs at 40 uM GlcN6P [1] [s⁻¹] | self-cleavage kobs at 2500 uM GlcN6P [2] [s⁻¹] | self-cleavage kobs at 10000 uM GlcN6P [3] [s⁻¹] | self-cleavage kobs at 640 uM GlcN6P [4] [s⁻¹] | self-cleavage kobs at 160 uM GlcN6P [5] [s⁻¹]
G35A G66U | < 1e-05 |  |  |  | < 1e-05
G35A G40C | < 1e-05 | < 1e-05 | < 1e-05 | < 1e-05 | < 1e-05
G35C U54A | < 1e-05 | < 1e-05 | < 1e-05 | < 1e-05 | 
G35A U56A G63A | < 1e-05 |  | < 1e-05 |  | 
A36C U49A G62C C70U | < 1e-05 |  | < 1e-05 |  | 
G35U G40U | < 1e-05 | < 1e-05 | < 1e-05 | < 1e-05 | < 1e-05
A36G A48C | < 1e-05 |  | < 1e-05 | < 1e-05 | < 1e-05
A36G A48U | < 1e-05 | < 1e-05 | < 1e-05 | < 1e-05 | < 1e-05
G35C G40A | < 1e-05 | < 1e-05 | < 1e-05 | < 1e-05 | < 1e-05
G35C A64U | < 1e-05 | < 1e-05 | < 1e-05 | < 1e-05 | < 1e-05
A36C U45G U65C | < 1e-05 | < 1e-05 |  |  | 
G35U U69C | < 1e-05 | < 1e-05 | < 1e-05 |  | < 1e-05
A36G G60A | < 1e-05 |  |  | < 1e-05 | < 1e-05
A36G G37C | < 1e-05 |  | < 1e-05 |  | < 1e-05
G35C G63U C71A | < 1e-05 | < 1e-05 | < 1e-05 |  | 
A36G A52G | < 1e-05 |  | < 1e-05 | < 1e-05 | < 1e-05
A36G A52U | < 1e-05 | < 1e-05 | < 1e-05 | < 1e-05 | < 1e-05
A36C G41C U54G G66C C68G | < 1e-05 |  |  |  | 
A36G G63A | < 1e-05 | < 1e-05 | < 1e-05 | < 1e-05 | < 1e-05
A36G G63U | < 1e-05 | < 1e-05 | < 1e-05 | < 1e-05 | < 1e-05
G35U G66U | < 1e-05 | < 1e-05 | < 1e-05 | < 1e-05 | < 1e-05

— the supplement of paper PMC7125110
